In patent US20070020327A1:

Each binder was assayed against HLA-A*0201 (human) (assay: competition with 125I-labelled standard peptide 941.01 for purified HLA-A*0201, gel filtration). Conditions: not given.
Work on RLSEPAELT (modifications not checked) [… (PSA, position 121)] yielded a binding affinity ratio (IC50 of standard peptide / IC50 of test peptide) of 0.0003. RAVCGGVLV (modifications not checked) [… (PSA, position 43)] gave a binding affinity ratio (IC50 of standard peptide / IC50 of test peptide) of 0.0002. SIEPEEFL (modifications not checked) [SIEPEEFL (Kallikrein, position 159)] was tested, and the binding affinity ratio (IC50 of standard peptide / IC50 of test peptide) was 0.0001. SIEPEEFL (modifications not checked) [SIEPEEFL (PSA, position 155)] was tested, and the binding affinity ratio (IC50 of standard peptide / IC50 of test peptide) was 0.0001. SIEGNYTLRV (modifications not checked) [… (PSM, position 455)] gave a binding affinity ratio (IC50 of standard peptide / IC50 of test peptide) of 0.0001. Work on RAASLSLGFL (modifications not checked) [… (PAP, position 10)] yielded a binding affinity ratio (IC50 of standard peptide / IC50 of test peptide) of 0.0002. For RAFIDPLGL (modifications not checked) [… (PSM, position 673)], the binding affinity ratio (IC50 of standard peptide / IC50 of test peptide) was 0.0001. For RLHPYKDFI (modifications not checked) [… (PAP, position 180)], the binding affinity ratio (IC50 of standard peptide / IC50 of test peptide) was 0.0006. Binder SAVKNFTEI (modifications not checked) [… (PSM, position 634)] has a binding affinity ratio (IC50 of standard peptide / IC50 of test peptide) of 0.0001. With SIEPEEFLT (modifications not checked) [… (PSA, position 155)] the binding affinity ratio (IC50 of standard peptide / IC50 of test peptide) was 0.0001. SAHDTTVSGL (modifications not checked) [… (PAP, position 287)] gave a binding affinity ratio (IC50 of standard peptide / IC50 of test peptide) of 0.0002.

Each binder was assayed against HLA-A*0301 (human) (assay: competition with 125I-labelled standard peptide for purified HLA, gel filtration). Conditions: not given.
LVFRHGDR (modifications not checked) [LVFRKGDR (PAP, position 40)] showed a binding affinity ratio (IC50 of standard peptide / IC50 of test peptide) of 0.0003.

Same assay, conditions: remark: other sources report otherwise; scale: ratio
In the case of TAAHCIRNK (modifications not checked) [… (PSA, position 58)], the binding affinity ratio is reported as 0.0094.

Same assay, conditions: scale: ratio
For PANEYAYRR (modifications not checked) [… (PSM, position 273)], the binding affinity ratio was 0.0001.

These binders were tested against HLA-A*1101 (human) in the same assay as above. Conditions: not given.
LTELYFEK (modifications not checked) [LTELYFEK (PAP, position 315)] showed a binding affinity ratio (IC50 of standard peptide / IC50 of test peptide) of 0.01. With LVFRHGDR (modifications not checked) [LVFRKGDR (PAP, position 40)] the binding affinity ratio (IC50 of standard peptide / IC50 of test peptide) was 0.0002. In the case of LLSLYGIHK (modifications not checked) [… (PAP, position 243)], the binding affinity ratio (IC50 of standard peptide / IC50 of test peptide) is reported as 0.2.

Same assay, conditions: remark: other sources report otherwise; scale: ratio
In the case of TAAHCIRNK (modifications not checked) [… (PSA, position 58)], the binding affinity ratio is reported as 0.014.

Same assay, conditions: scale: ratio
For PANEYAYRR (modifications not checked) [… (PSM, position 273)], the binding affinity ratio was 0.0002.

The binders below were run against HLA-A*0201 (human) (assay: competition for purified HLA with 125I-labelled standard peptide 941.01 [..] as competitor, gel filtration). Conditions: scale: ratio.
HTVPLSEDQL (modifications not checked) [… (PAP position 144, 10-mer)] gave a binding affinity ratio of 0.0002. Work on GVQRGNILNL (modifications not checked) [… (PSM position 252, 10-mer)] yielded a binding affinity ratio of 0.0001. HVISNDVCA (modifications not checked) [… (PSA position 173, 9-mer)] showed a binding affinity ratio of 0.0001. Binder GVLVHPQWV (modifications not checked) [… (Kallikrein position 52 / PSA position 48, 9-mer)] has a binding affinity ratio of 0.0003. Work on ILLGRHSL (modifications not checked) [ILLGRHSL (PSA position 69, 8-mer)] yielded a binding affinity ratio of 0.001. In the case of IAEAVGLPSI (modifications not checked) [… (PSM position 283, 10-mer)], the binding affinity ratio is reported as 0.0001. Binder IINEDGNEI (modifications not checked) [… (PSM position 130, 9-mer)] has a binding affinity ratio of 0.0002. In the case of ILGGHRDSWV (modifications not checked) [… (PSM position 373, 10-mer)], the binding affinity ratio is reported as 0.0003. ILNHMKRAT (modifications not checked) [… (PAP position 267, 9-mer)] gave a binding affinity ratio of 0.0001. For IASKFSERL (modifications not checked) [… (PSM position 642, 9-mer)], the binding affinity ratio was 0.0001. IATLGKLSGL (modifications not checked) [… (PAP position 188, 10-mer)] showed a binding affinity ratio of 0.0002.

What follows are binders tested against HLA-A*0201 (human) (assay: competition with 125I-labelled standard peptide 941.01 for purified HLA, gel filtration). Conditions: remark: other sources report otherwise; scale: ratio.
With GITSWGPEPCA (modifications not checked) [Kallikrein (hK2) peptide … (position 225)] the binding affinity ratio was 0.0009.

Same assay, conditions: scale: ratio
Binder GAVPLIQSRIV (modifications not checked) [Kallikrein (hK2) peptide … (position 16)] has a binding affinity ratio of 0.0001.

What follows are binders tested against HLA-A*0206 (human) in the same assay as above. Conditions: remark: other sources report otherwise; scale: ratio.
With GITSWGPEPCA (modifications not checked) [Kallikrein (hK2) peptide … (position 225)] the binding affinity ratio was 0.0001.

Same assay, conditions: scale: ratio
GAVPLIQSRIV (modifications not checked) [Kallikrein (hK2) peptide … (position 16)] gave a binding affinity ratio of 0.0003.

These binders were tested against HLA-A*0201 (human) (assay: competition binding to purified HLA, 125I-labelled standard peptide, gel filtration; ratio = IC50 standard / IC50 test peptide). Conditions: not given.
With DVCAQVHPQKV (modifications not checked) [… (PSA, position 178, 11 amino acids)] the binding affinity ratio was 0.0001. EAVGLPSIPV (modifications not checked) [… (PSM, position 285, 10 amino acids)] was tested, and the binding affinity ratio was 0.0002. For DTMTKLREL (modifications not checked) [… (PAP, position 230, 9 amino acids)], the binding affinity ratio was 0.0002. In the case of DMKINCSGKI (modifications not checked) [… (PSM, position 191, 10 amino acids)], the binding affinity ratio is reported as 0.0001. Binder EIASKFSERL (modifications not checked) [… (PSM, position 641, 10 amino acids)] has a binding affinity ratio of 0.0001. For EIVRSFGTL (modifications not checked) [… (PSM, position 397, 9 amino acids)], the binding affinity ratio was 0.0002. DMSLLKNRFL (modifications not checked) [… (PSA, position 98, 10 amino acids)] gave a binding affinity ratio of 0.0001. DLVLSIAL (modifications not checked) [DLVLSIAL (Kallikrein, position 3, 8 amino acids)] showed a binding affinity ratio of 0.0001.

Same assay, conditions: remark: other sources report otherwise
DLPTQEPAL (modifications not checked) [… (PSA, position 136, 9 amino acids)] gave a binding affinity ratio of 0.0003. DLVLSIALSV (modifications not checked) [… (Kallikrein, position 3, 10 amino acids)] showed a binding affinity ratio of 0.001.

Each binder was assayed against HLA-A*0201 (human) (assay: inhibition of 125I probe peptide binding to purified HLA, gel filtration; ratio = IC50 standard/IC50 test). Conditions: not given.
In the case of ALPERPSLYT (modifications not checked) [… (PSA, position 231)], the binding affinity ratio is reported as 0.0008. ATLGKLSGL (modifications not checked) [… (PAP, position 189)] showed a binding affinity ratio of 0.0005. AQVHPQKVT (modifications not checked) [… (PSA, position 181)] was tested, and the binding affinity ratio was 0.0002. In the case of AAAETLSEV (modifications not checked) [… (PSM, position 741)], the binding affinity ratio is reported as 0.0002. AAHCIRNKSV (modifications not checked) [… (PSA, position 59)] gave a binding affinity ratio of 0.0002. With ALPERPSL (modifications not checked) [ALPERPSL (PSA, position 231)] the binding affinity ratio was 0.0002. AALFPPEGV (modifications not checked) [… (PAP, position 121)] gave a binding affinity ratio of 0.0002. Work on ATARRPRWL (modifications not checked) [… (PSM, position 13)] yielded a binding affinity ratio of 0.0002. AAPLILSRIV (modifications not checked) gave a binding affinity ratio of 0.0002. AAPLILSRI (modifications not checked) gave a binding affinity ratio of 0.0002. For ATEDTMTKL (modifications not checked) [… (PAP, position 227)], the binding affinity ratio was 0.0002. For AASLSLGFL (modifications not checked) [… (PAP, position 11)], the binding affinity ratio was 0.0002.
